Laboratory results published in patent US20260132208A1 (DOMAIN THERAPEUTICS, published 2026).
Where “and” joins values, the source holds several entries; their conditions need not be identical. Equal values may be shown once.

Assays:
human CCR8 [1] = target: T1, human CCR8 (human, UniProt P51685 1-355); assay: cell-based or functional assay
human CCR8 [2] = target: T1, human CCR8; assay: cell-based or functional assay; remark: listed apart in the source
human CCR8 [3] = target: T1, human CCR8; assay: cell-based or functional assay; remark: listed apart in the source
[4] = target: T2, human CCR8 with a SNAP-tag at the N-terminus (human, UniProt P51685 1-355, SNAP-tag labelled covalently with Lumi4-Terbium); assay: cell-based or functional assay
human CCR8 [5] = target: T1, human CCR8; assay: cell-based or functional assay; remark: listed apart in the source
pwt1 = target: T3, pwt1 (none (unmodified peptide)); assay: ELISA on coated peptide [cont.]
T3 construct: also called unmodified CCR8 N-terminal peptide
Summary of the method: (§1)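 Optical density after 15 min TMB development is the read-out, correlated with antibody binding to the coated peptide. Plates carried peptide at 500 ng/ml in carbonate/bicarbonate buffer. Antibodies were incubated at 1 μg/mL and at a tenfold dilution for 90 min at room temperature, followed by washes.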

pm1 = target: T4, pm1 (sulfated tyrosine(s) among Y15, Y16, Y17; which ones is not told (the underlining of Table 1 is lost in the text)); assay: ELISA on coated peptide [cont.]
T4 construct: also called sulfated CCR8 N-terminal peptide pm1
Summary of the method: as §1

pm2 = target: T5, pm2 (sulfated tyrosine(s) among Y15, Y16, Y17; which ones is not told (the underlining of Table 1 is lost in the text)); assay: ELISA on coated peptide [cont.]
T5 construct: also called sulfated CCR8 N-terminal peptide pm2
Summary of the method: as §1

pm3 = target: T6, pm3 (Y17 sulfated; Y15 and Y16 not sulfated); assay: ELISA on coated peptide [cont.]
T6 construct: also called sulfated CCR8 N-terminal peptide pm3
Summary of the method: as §1

pm4 = target: T7, pm4 (sulfated tyrosine(s) among Y15, Y16, Y17; which ones is not told (the underlining of Table 1 is lost in the text)); assay: ELISA on coated peptide [cont.]
T7 construct: also called sulfated CCR8 N-terminal peptide pm4
Summary of the method: as §1

pm5 = target: T8, pm5 (Y15 and Y17 sulfated; Y16 not sulfated); assay: ELISA on coated peptide [cont.]
T8 construct: also called sulfated CCR8 N-terminal peptide pm5
Summary of the method: as §1

pm6 = target: T9, pm6 (Y16 and Y17 sulfated; Y15 not sulfated); assay: ELISA on coated peptide [cont.]
T9 construct: also called sulfated CCR8 N-terminal peptide pm6
Summary of the method: as §1

pm8 = target: T10, pm8 (Y15, Y16 and Y17 sulfated); assay: ELISA on coated peptide [cont.]
T10 construct: also called sulfated CCR8 N-terminal peptide pm8
Summary of the method: as §1

human CCR8 [6] = target: T1, human CCR8; assay: flow cytometry, HUT78 cells (endogenous CCR8)
Description: In human activated T cells model, prior to mAb incubation, cells were first incubated with 200 nM of hCCL1 (R&D Systems, Minneapolis, MN, USA) or buffer PBS (Invitrogen by Thermofisher Scientific, Illkirch-Graffenstaden, France) supplemented by 2% Fetal Bovine Serum (Invitrogen by Thermofisher Scientific, Illkirch-Graffenstaden, France) and 2 mM EDTA (Invitrogen by Thermofisher Scientific, Illkirch-Graffenstaden, France) during 1 hour at 4° C. To determine EC50 value, 8 concentrations of anti-CCR8 mAb were tested. Unbound antibodies were washed away with PBS (Invitrogen by Thermofisher Scientific, Illkirch-Graffenstaden, France) supplemented by 2% Fetal Bovine Serum (Invitrogen by Thermofisher Scientific, Illkirch-Graffenstaden, France) and 2 mM EDTA (Invitrogen by Thermofisher Scientific, Illkirch-Graffenstaden, France). Subsequently, cells are centrifuged (5 min at 400 g) and bound antibody is detected with F(ab′)2-Goat anti-Mouse IgG (H+L) Cross-Adsorbed Secondary Antibody, Alexa Fluor 488 (dilution 1/500) (Invitrogen by Thermofisher Scientific, Illkirch-Graffenstaden, France) or with F(ab′)₂-Goat anti-Human IgG Fc Secondary Antibody, PE (Invitrogen by Thermofisher Scientific, Illkirch-Graffenstaden, France) (dilution 1/1000) at 4° C. for 30 min. Detection reagent is washed away and cells are centrifuged (5 min at 400 g) and resuspended in 30 μL PBS. Bound detection antibody is quantified on a MacsQuant16 (Miltenyi, Gladbach, Germany) (B1 or B2 channel, 5000 events per acquisition). During the experiment, the respective isotype mAb controls (mouse IgG1, mouse IgG2a, mouse IgG2b, mouse IgG3 or human IgG1) (Biolegend, Amsterdam, The Netherlands) are included to exclude any unspecific binding events. EC50 values were determined via nonlinear fit “log (agonist) vs.response—Variable slope (four parameters)” function of Graphpad prism. EC50 values were not constantly determined in the same experiments.
Anti-CCR8 mAb cellular reactivity was also evaluated on native human CCR8 from HUT78 cell line by flow cytometry. In Table 4.3, Mean Fluorescence Intensity (Fold change to isotype control), the percentage of labelled cells and EC50 in nM of some anti-CCR8 antibodies are presented.

[7] = target: T2, human CCR8 with a SNAP-tag at the …; assay: HTRF Tag-lite, inhibition of hCCL1-AF647 binding to SNAP-hCCR8 on HEK-293 cells
Description: The inhibition of CCL1 binding to hCCR8 was evaluated with the Tag-Lite® technology from Cisbio (Revvity). Human CCR8 is engineered with a SNAP-tag at the N-terminus of the GPCR. hCCR8 SNAP-tag is transiently transfected on HEK-293 cell line using FuGene® (Promega, Madison, WI, USA). 48 hours after transfection, cells are labeled with the substrate Lumi4-Terbium® (Cisbio, Codolet, France) which covalently reacts with the SNAP-tag, for 1 h at 37° C. Thawed or freshly labeled cells are plated in a 384 low volume white plate (GREINER Bio-One, Courtaboeuf, France) (10000 cells/well/10 μl). […] The Kd was previously obtained in a saturation binding assay on the same cells. […] The plate is next incubated at 21° C. for 2 h. Detection of HTRF signal is performed on the multiplate reader EnVision (PerkinElmer, Waltham, MA, USA). The HTRF (665/620) ratio is calculated by EnVision software, the data exported are considered as the total binding. The specific binding is calculated then by subtracting the non-specific signal from the total binding. The Ki and IC₅₀ are calculated using the “One site-Fit Ki” and “One site-FitlogIC50” from GraphPad Prism 9 (Graphpad Software, San Diego, CA, USA), respectively.

human CCR8 [8] = target: T1, human CCR8; assay: cell-based or functional assay; remark: listed apart in the source
human CCR8 [9] = target: T1, human CCR8; assay: cell-based or functional assay; remark: listed apart in the source

T4 sequence (peptide, as listed by the source): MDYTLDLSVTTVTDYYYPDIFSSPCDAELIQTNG
T8 sequence (peptide, as listed by the source): as above
T6 sequence (peptide, as listed by the source): as above
T10 sequence (peptide, as listed by the source): as above
T9 sequence (peptide, as listed by the source): as above
T7 sequence (peptide, as listed by the source): as above
T3 sequence (peptide, as listed by the source): as above
T5 sequence (peptide, as listed by the source): as above

IC50 of CCL1-induced hCCR8 Gi2 signaling (BRET, HEK-293) (human CCR8 [1]) | residual hCCL1 (100 nM) Gi2 response, protocol #2, mAb 0.08 µg/mL (human CCR8 [2]) [%] | residual hCCL1 (100 nM) Gi2 response, protocol #2, mAb 0.4 µg/mL (human CCR8 [2]) [%] | residual hCCL1 (100 nM) Gi2 response, protocol #2, mAb 10 µg/mL (human CCR8 [2]) [%] | residual hCCL1 (100 nM) Gi2 response, protocol #3, mAb 0.05 µg/mL (human CCR8 [2]) [%] | residual hCCL1 (100 nM) Gi2 response, protocol #3, mAb 0.5 µg/mL (human CCR8 [2]) [%] | residual hCCL1 (100 nM) Gi2 response, protocol #3, mAb 5 µg/mL (human CCR8 [2]) [%] | extrapolated top plateau of hCCL1 curve with 5 µg/mL mAb, protocol #3 (human CCR8 [3]) | % hCCR8 internalization with CCL1 300 nM, mAb 1 µg/ml (HTRF) [4] [%] | % hCCR8 internalization with CCL1 300 nM, mAb 10 µg/ml (HTRF) [4] [%] | ADCC % max lysis, HUT78 targets, NK donor 3 (human CCR8 [5]) [%] | ADCC % max lysis, HUT78 targets, NK donor 4 (human CCR8 [5]) [%] | ADCC EC50, HUT78 targets, NK donor 3 (human CCR8 [5]) [nM] | ADCC EC50, HUT78 targets, NK donor 4 (human CCR8 [5]) [nM] | binding result (pwt1) | binding result (pm1) | binding result (pm2) | binding result (pm3) | binding result (pm4) | % of labelled cells (human CCR8 [6]) [%] | Binder | also measured
 |  |  |  |  |  |  |  |  |  |  |  |  |  |  |  |  |  |  | 34 | anti-CCR8 mAb 1-26 (antibody, human IgG1, kappa, afucosylated Fc glycan, Afucosylated humanized mAb; same chains as 1-21) heavy: not shown light: DIVMTQAAPSLSVTPGESASISCTSSKSLLHSNGNTYLYWFLQKPGQSPQLLIYRMSNLASGVPDRFSGSGSGTAFTLKISRVEAEDVGVYYCMQHREYPFTFGSGTKLEIKRTVAAPSVFIFPPSDEQLKSGTASVVCLLNNFYPREAKVQWKVDNALQSGNSQESVTEQDSKDSTYSLSSTLTLSKADYEKHKVYACEVTHQGLSSPVTKSFNRGEC | ADCC % max lysis, HUT78 targets, NK donor 1 (human CCR8 [8]): 22%; ADCC % max lysis, HUT78 targets, NK donor 2 (human CCR8 [8]): 20%; ADCC EC50, HUT78 targets, NK donor 1 (human CCR8 [8]): 0.00224 nM; ADCC EC50, HUT78 targets, NK donor 2 (human CCR8 [8]): 0.00216 nM; ADCP % max phagocytosis, HUT78 targets, MDM donor 9 (human CCR8 [9]): 8.29%; EC50 (human CCR8 [6]): 0.4 nM; MFI fold change to isotype ctrl (human CCR8 [6]): 2.5 fold
 |  |  |  |  |  |  |  |  |  | 25 | 28 | 0.218 | 0.053 |  |  |  |  |  |  | anti-CCR8 mAb 1-34 (antibody, human IgG1, kappa) heavy: not shown light: DVVMTQTPLSLPVSLGDQASISCRCTQSLLHTNGDTYLHWYLQKPGQSPKLLIYKVSNRFSGVPDRFSGSGSGTDFTLKISRVEAEDLGVYFCSQSTHVPYTFGGGTKLEIKRTVAAPSVFIFPPSDEQLKSGTASVVCLLNNFYPREAKVQWKVDNALQSGNSQESVTEQDSKDSTYSLSSTLTLSKADYEKHKVYACEVTHQGLSSPVTKSFNRGEC | ADCP % max phagocytosis, HUT78 targets, MDM donor 9 (human CCR8 [9]): 7.27%

More lines, now with the values behind:

Binder | IC50 of CCL1-induced hCCR8 Gi2 signaling (BRET, HEK-293) (human CCR8 [1]) | residual hCCL1 (100 nM) Gi2 response, protocol #2, mAb 0.08 µg/mL (human CCR8 [2]) [%] | residual hCCL1 (100 nM) Gi2 response, protocol #2, mAb 0.4 µg/mL (human CCR8 [2]) [%] | residual hCCL1 (100 nM) Gi2 response, protocol #2, mAb 10 µg/mL (human CCR8 [2]) [%] | residual hCCL1 (100 nM) Gi2 response, protocol #3, mAb 0.05 µg/mL (human CCR8 [2]) [%] | residual hCCL1 (100 nM) Gi2 response, protocol #3, mAb 0.5 µg/mL (human CCR8 [2]) [%] | residual hCCL1 (100 nM) Gi2 response, protocol #3, mAb 5 µg/mL (human CCR8 [2]) [%] | extrapolated top plateau of hCCL1 curve with 5 µg/mL mAb, protocol #3 (human CCR8 [3]) | % hCCR8 internalization with CCL1 300 nM, mAb 1 µg/ml (HTRF) [4] [%] | % hCCR8 internalization with CCL1 300 nM, mAb 10 µg/ml (HTRF) [4] [%] | ADCC % max lysis, HUT78 targets, NK donor 3 (human CCR8 [5]) [%] | ADCC % max lysis, HUT78 targets, NK donor 4 (human CCR8 [5]) [%] | ADCC EC50, HUT78 targets, NK donor 3 (human CCR8 [5]) [nM] | ADCC EC50, HUT78 targets, NK donor 4 (human CCR8 [5]) [nM] | binding result (pwt1) | binding result (pm1) | binding result (pm2) | binding result (pm3) | binding result (pm4) | % of labelled cells (human CCR8 [6]) [%] | also measured
anti-CCR8 mAb 1-23 (antibody, human IgG1, kappa, V domains shown, Humanized mAb, human IgG1 / kappa) VH: QVQLVQSGPEVVKPGASVKVSCKTSGYTFTEYTIHWVRQAPGQSLEWVGGINPNNGNTRYDQKFQGRVTITRDKSASTAYMELRSLTSEDTAVYYCARVARSSGSGPYAMDYWGQGTTVTVSS VL: DVVMTQSPLSLPVTLGDQASISCRCSQSLLHTNGDTYLHWYLQRPGQSPRLLIYKVSNRFSGVPDRFSGSGSGTDFTLKISRVEAEDVGVYFCSQSTHVPYTFGGGTKVEIKR | 0.022 µg/mL and 0.148 nM | 67 | 55 | 32 | 86 | 60 | 42 | 569000 % of hCCL1 (100 nM) | 44 | 29 | 15 | 16 | 0.505 | 0.573 | binds | binds | binds | binds | binds | 96 | binding result (pm5): binds; binding result (pm6): binds; binding result (pm8): binds; IC50 [7]: 0.04 µg/mL; Ki [7]: 0.02 µg/mL
anti-CCR8 mAb 1-24 (antibody, human IgG1, kappa, V domains shown, Humanized mAb, human IgG1 / kappa) VH: QVQLQQSGPEVVKPGASVKVSCKTSGYTFTEYTIHWVRQSHGQSLEWVGGINPNNGNTRYDQKFKGRVTITIDKSSSTAYMELRSLTSEDTAVYYCARVARSSGSGPYAMDYWGQGTTVTVSS VL: DVVMTQSPLSLPVTLGDQASISCRCSQSLLHTNGDTYLHWYLQRPGQSPRLLIYKVSNRFSGVPDRFSGSGSGTDFTLKISRVEAEDVGVYFCSQSTHVPYTFGGGTKVEIKR | 0.034 µg/mL and 0.224 nM | 77 | 66 | 41 | 73 | 52 | 37 | 366000 % of hCCL1 (100 nM) | 44 | 36 |  |  |  |  | binds | binds | binds | binds | binds | 88 | binding result (pm5): binds; binding result (pm6): binds; binding result (pm8): binds; EC50 (human CCR8 [6]): 0.2 nM; IC50 [7]: 0.04 µg/mL; Ki [7]: 0.02 µg/mL
